Measured values: article PMC3260238, “The Werner Syndrome Protein Is Distinguished from the Bloom Syndrome Protein by Its Capacity to Tightly Bind Diverse DNA Structures”
Substitutions are numbered along the chain they refer to.

How the values were obtained:
WRN [1] = target: T1, WRN (human, UniProt Q14191 1-1432); assay: EMSA; ATPgS, 4 mM Mg2+; EMSA: 40 mM Tris-HCl pH 8.0, 4 mM MgCl2, 5 mM DTT, 1 mM ATPgS, 0.1 ug BSA in 10 ul, 4 C, 20 min; +10 mM KCl for quadruplexes; 4% gel, 0.5x Tris-glycine pH 8.3; conditions: protein: recombinant, tags: His6
WRN [2] = target: T1, WRN; assay: EMSA; ATPgS, 10 mM KCl; tight, similar to G'2 TeR43; EMSA: 40 mM Tris-HCl pH 8.0, 4 mM MgCl2, 5 mM DTT, 1 mM ATPgS, 0.1 ug BSA in 10 ul, 4 C, 20 min; +10 mM KCl for quadruplexes; 4% gel, 0.5x Tris-glycine pH 8.3; conditions: protein: recombinant; tags: His6; label: 5'-32P; G4 dimer of 2 strands, described as antiparallel
WRN K577M = WRN K577M (human, UniProt Q14191 1-1432, K577M); assay: EMSA; similar to wild type; EMSA: 40 mM Tris-HCl pH 8.0, 4 mM MgCl2, 5 mM DTT, 1 mM ATPgS, 0.1 ug BSA in 10 ul, 4 C, 20 min; +10 mM KCl for quadruplexes; 4% gel, 0.5x Tris-glycine pH 8.3; conditions: protein: recombinant; tags: His6; label: 5'-32P; G4 dimer of 2 strands, described as antiparallel
WRN [3] = target: T1, WRN; assay: EMSA; ATPgS, 4 mM Mg2+, 10 mM KCl; EMSA: 40 mM Tris-HCl pH 8.0, 4 mM MgCl2, 5 mM DTT, 1 mM ATPgS, 0.1 ug BSA in 10 ul, 4 C, 20 min; +10 mM KCl for quadruplexes; 4% gel, 0.5x Tris-glycine pH 8.3; conditions: protein: recombinant, tags: His6, label: 5'-32P
BLM = BLM (UniProt P54132 1-1417); assay: as above; conditions: protein: recombinant; tags: C-terminal FLAG; label: 5'-32P; G4 tetramer of 4 parallel strands
Chain of BLM (P54132 whole entry): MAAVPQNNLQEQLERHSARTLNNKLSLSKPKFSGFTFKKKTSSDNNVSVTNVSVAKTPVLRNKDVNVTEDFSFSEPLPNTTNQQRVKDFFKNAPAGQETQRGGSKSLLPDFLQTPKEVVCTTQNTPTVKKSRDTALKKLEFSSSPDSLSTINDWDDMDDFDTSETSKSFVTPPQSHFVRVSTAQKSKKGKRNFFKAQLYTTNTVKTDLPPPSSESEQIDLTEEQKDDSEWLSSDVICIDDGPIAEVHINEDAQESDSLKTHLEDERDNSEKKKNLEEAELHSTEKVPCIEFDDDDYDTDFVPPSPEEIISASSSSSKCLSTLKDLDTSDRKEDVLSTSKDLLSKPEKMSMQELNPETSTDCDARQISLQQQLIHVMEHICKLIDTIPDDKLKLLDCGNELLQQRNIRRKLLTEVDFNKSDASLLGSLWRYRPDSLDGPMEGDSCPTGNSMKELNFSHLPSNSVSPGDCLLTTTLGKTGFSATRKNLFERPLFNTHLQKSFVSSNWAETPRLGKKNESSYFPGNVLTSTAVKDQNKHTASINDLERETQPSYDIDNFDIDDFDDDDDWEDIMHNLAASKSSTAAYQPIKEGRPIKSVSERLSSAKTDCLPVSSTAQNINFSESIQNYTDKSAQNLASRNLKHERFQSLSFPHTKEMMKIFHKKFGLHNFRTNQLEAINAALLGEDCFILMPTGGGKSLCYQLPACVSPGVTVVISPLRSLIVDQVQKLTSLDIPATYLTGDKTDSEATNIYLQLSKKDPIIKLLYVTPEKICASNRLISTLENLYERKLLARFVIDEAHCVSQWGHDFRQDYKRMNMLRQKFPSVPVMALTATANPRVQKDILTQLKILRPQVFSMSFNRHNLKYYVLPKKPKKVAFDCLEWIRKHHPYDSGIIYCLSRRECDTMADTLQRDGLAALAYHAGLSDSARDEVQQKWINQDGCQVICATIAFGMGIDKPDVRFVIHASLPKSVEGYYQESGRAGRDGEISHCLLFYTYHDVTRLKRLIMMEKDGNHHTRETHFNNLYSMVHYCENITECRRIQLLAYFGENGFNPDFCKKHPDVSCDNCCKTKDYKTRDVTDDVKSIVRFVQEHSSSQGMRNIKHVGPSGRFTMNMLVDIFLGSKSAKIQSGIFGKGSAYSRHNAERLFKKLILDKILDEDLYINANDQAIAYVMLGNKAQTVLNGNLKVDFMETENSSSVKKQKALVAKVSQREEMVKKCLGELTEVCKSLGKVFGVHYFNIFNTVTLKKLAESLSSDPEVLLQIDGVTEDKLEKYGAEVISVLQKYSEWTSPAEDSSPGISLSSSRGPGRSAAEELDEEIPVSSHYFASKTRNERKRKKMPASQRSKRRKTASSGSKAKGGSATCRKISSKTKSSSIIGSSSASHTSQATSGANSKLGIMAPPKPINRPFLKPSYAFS

T1 sequence (Q14191 whole entry): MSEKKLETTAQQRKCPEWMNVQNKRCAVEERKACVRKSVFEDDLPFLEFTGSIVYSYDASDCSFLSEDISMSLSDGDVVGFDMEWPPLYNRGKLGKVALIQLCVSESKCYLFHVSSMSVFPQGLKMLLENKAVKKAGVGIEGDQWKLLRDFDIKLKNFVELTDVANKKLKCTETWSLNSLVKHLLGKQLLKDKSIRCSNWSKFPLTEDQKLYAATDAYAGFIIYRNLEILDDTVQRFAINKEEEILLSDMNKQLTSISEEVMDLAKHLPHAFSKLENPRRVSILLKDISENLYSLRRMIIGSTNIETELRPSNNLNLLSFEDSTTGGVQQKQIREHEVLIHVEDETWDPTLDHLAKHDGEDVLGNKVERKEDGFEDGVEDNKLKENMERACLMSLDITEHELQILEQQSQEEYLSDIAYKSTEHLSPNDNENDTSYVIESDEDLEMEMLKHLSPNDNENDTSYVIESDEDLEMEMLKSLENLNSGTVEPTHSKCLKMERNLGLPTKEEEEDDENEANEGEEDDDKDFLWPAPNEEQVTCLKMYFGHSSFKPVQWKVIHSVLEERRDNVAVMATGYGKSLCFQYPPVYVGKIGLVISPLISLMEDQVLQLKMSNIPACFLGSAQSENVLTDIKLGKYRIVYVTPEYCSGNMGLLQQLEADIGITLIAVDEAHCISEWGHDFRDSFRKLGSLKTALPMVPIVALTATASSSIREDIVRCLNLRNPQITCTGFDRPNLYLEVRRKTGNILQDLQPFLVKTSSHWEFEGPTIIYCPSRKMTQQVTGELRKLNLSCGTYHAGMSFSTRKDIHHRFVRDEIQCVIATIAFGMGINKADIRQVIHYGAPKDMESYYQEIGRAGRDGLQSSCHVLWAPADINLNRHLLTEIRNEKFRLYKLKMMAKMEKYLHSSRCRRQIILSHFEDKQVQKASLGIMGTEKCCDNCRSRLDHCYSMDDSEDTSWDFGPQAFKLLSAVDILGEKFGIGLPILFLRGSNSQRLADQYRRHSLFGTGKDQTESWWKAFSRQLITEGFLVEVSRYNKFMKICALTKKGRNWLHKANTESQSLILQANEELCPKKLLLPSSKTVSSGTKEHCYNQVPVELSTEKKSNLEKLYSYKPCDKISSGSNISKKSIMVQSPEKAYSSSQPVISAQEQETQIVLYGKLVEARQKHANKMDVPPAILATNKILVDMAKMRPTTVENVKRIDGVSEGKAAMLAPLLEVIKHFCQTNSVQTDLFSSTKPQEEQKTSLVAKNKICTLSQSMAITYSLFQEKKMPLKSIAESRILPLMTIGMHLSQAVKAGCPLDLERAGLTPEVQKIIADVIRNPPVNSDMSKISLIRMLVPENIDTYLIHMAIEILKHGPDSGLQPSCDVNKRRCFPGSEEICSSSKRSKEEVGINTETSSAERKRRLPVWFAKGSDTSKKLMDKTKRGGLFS
Chain of WRN K577M (Q14191 whole entry K577M): as the sequence (Q14191 whole entry) above, with K577M counted along it

B1: dsTeR63 partial duplex (dsDNA)
DNA 1: GGTTAGGGTTAGGGTTAGGGTTAGGGTTAGTTAGGGTTAGGGTTAGGGTTAGGGGCGATTGAT
DNA 2: ATCAATCGCCCCTAACCC
Kd (WRN [1]; label: 5'-32P on strand 2, 18 bp, 45 nt 5' tail on strand 1): 7.6 ± 2.9 nM

B2: G'2 TeR63 quadruplex (structured_DNA)
DNA: B1 DNA 1
binding result (WRN [2]): binds

GGTTAGGGTTAGGGTTAGGGTTAGGGTTAGTTAGGGTTAGGGT (structured_DNA) [G'2 TeR43 quadruplex]
binding result (WRN K577M): binds | Kd (WRN [3]; G4 dimer of 2 strands, described as antiparallel): 0.26 ± 0.08 nM

B3: 20/46 partial duplex (dsDNA)
DNA 1: CGCTAGCAATATTCTGCAGC
DNA 2: GCGCGGAAGCTTGGCTGCAGAATATTGCTAGCGGGAAATCGGCGCG
modifications: 3'-terminal inverted dC on the 20-mer
Kd (WRN [1]; label: 5'-32P on strand 1, 20 bp, 13 nt 5' and 13 nt 3' tails on strand 2): 2.3 ± 1.3 nM

B4: Bubble DNA (dsDNA)
DNA 1: B3 DNA 2 with A38T
DNA 2: CGCGCCGAATTCCCGCTAGTGGCGCCTTGCAGCCAAGCTTCCGCGC
Kd (WRN [1]; label: 5'-32P on strand 1, blunt, 8 nt non-complementary central bubble): 24.7 ± 3.5 nM

B5: Splayed arm DNA (dsDNA)
DNA 1: CGCGCCGAATTCCCGCTAGCAATATTCTGCAGCCAAGCTTCCGCGC
DNA 2: GGCGAACTGCCATTCGCACTTACACTGCTAGCGGGAATTCGGCGCG
Kd (WRN [1]; label: 5'-32P on strand 1, fork): 6.2 ± 1.3 nM

TGGACCAGACCTAGCAGCTATGGGGGAGCTGGGGAAGGTGGGAATGTGA (structured_DNA) [G4 IgG quadruplex]
Kd (WRN [3]; G4 tetramer of 4 parallel strands): 3.4 ± 0.4 nM | Kd (BLM): 7 ± 2.9 nM
